# Assay results: FireProtDB (doi:10.1006/jmbi.1998.1906)
# “And” between values parts separate entries of the source, which are not always exact repeats. Equal values may be shown once.
# B1: Lysozyme C, P61626 (parent)
# chain: MKALIVLGLVLLSVTVQGKVFERCELARTLKRLGMDGYRGISLANWMCLAKWESGYNTRATNYNAGDRSTDYGIFQINSRYWCNDGKTPGAVNACHLSCSALLQDNIADAVACAKRVVRDPQGIRAWVAWRNRCQNRDVRQYVQGCGV
# Variants of: B1
# Conditions: Homo sapiens; pH 2.49; Thermal; DSC; glycine 0.05 M; reversible: yes; structure 1LZ1; whole UniProt chain shown
Variant,Tm [°C],unfolding enthalpy (calorimetric) [kcal/mol],unfolding enthalpy (van 't Hoff) [kcal/mol]
MKALIVLGLVLLSVTVQGKVFERCELARTLKRLGMDGYRGISLANWMCLAKWESGYNTRATNYNAGDRSTDYGIFQINSRYWCNDGKTPGAVNACHLSCSALLQDNVADAVACAKRVVRDPQGIRAWVAWRNRCQNRDVRQYVQGCGV [I107V],42.5,66,72

# Same assay, conditions: Homo sapiens; pH 2.66; Thermal; DSC; glycine 0.05 M; reversible: yes; structure 1LZ1; whole UniProt chain shown
Variant,Tm [°C],unfolding enthalpy (calorimetric) [kcal/mol],unfolding enthalpy (van 't Hoff) [kcal/mol]
MKALIVLGLVLLSVTVQGKVFERCELARTLKRLGMDGYRGISLANWMCLAKWESGYNTRATNYNAGDRSTDYGIFQINSRYWCNDGKTPGAVNACHLSCSALLQDNVADAVACAKRVVRDPQGIRAWVAWRNRCQNRDVRQYVQGCGV [I107V],45.5,71.8,76.6

# Same assay, conditions: Homo sapiens; pH 2.7; 49.2 °C; Thermal; DSC; glycine 0.05 M; reversible: yes; structure 1LZ1; whole UniProt chain shown
Variant,ddG of mutation (higher = less stable) [kcal/mol],heat capacity change of unfolding [kcal/mol/K]
MKALIVLGLVLLSVTVQGKVFERCELARTLKRLGMDGYRGISLANWMCLAKWESGYNTRATNYNAGDRSTDYGIFQINSRYWCNDGKTPGAVNACHLSCSALLQDNVADAVACAKRVVRDPQGIRAWVAWRNRCQNRDVRQYVQGCGV [I107V],0.35,1.84
MKALIVLGLVLLSVTVQGKVFERCELARTLKRLGMDGYRGISLANWMCLAKWESGYNTRATNYNAGDRSTDYGIFQINSRYWCNDGKTPGAVNACHLSCSALLQDNIADAAACAKRVVRDPQGIRAWVAWRNRCQNRDVRQYVQGCGV [V111A],1,1.53
MKALIVLGLVLLSVTVQGKVFERCELARTLKRLGMDGYRGISLANWMCLAKWESGYNTRATNYNAGDRSTDYGIFQINSRYWCNDGKTPGAVNACHLSCSALLQDNIADAVACAKRVVRDPQGIRAWVAWRNRCQNRDVRQYVQGCGA [V148A],1.12,1.87

# Same assay, conditions: Homo sapiens; pH 2.7; Thermal; DSC; glycine 0.05 M; reversible: yes; structure 1LZ1; whole UniProt chain shown
Variant,Tm,"change of melting temperature, mutant - wild type (higher = more stable)",heat capacity change of unfolding [kcal/mol/K],unfolding enthalpy (calorimetric),unfolding enthalpy (van 't Hoff) [kcal/mol]
MKALIVLGLVLLSVTVQGKVFERCELARTLKRLGMDGYRGISLANWMCLAKWESGYNTRATNYNAGDRSTDYGIFQINSRYWCNDGKTPGAVNACHLSCSALLQDNVADAVACAKRVVRDPQGIRAWVAWRNRCQNRDVRQYVQGCGV [I107V],46.5 °C,-2.7 °C,1.84,78.5 kcal/mol,
MKALIVLGLVLLSVTVQGKVFERCELARTLKRLGMDGYRGISLANWMCLAKWESGYNTRATNYNAGDRSTDYGIFQINSRYWCNDGKTPGAVNACHLSCSALLQDNIADAAACAKRVVRDPQGIRAWVAWRNRCQNRDVRQYVQGCGV [V111A],44.8 °C and 45.2 °C,-4.4 °C and -4 °C,1.53,76.3 kcal/mol and 71.1 kcal/mol,77.3
MKALIVLGLVLLSVTVQGKVFERCELARTLKRLGMDGYRGISLANWMCLAKWESGYNTRATNYNAGDRSTDYGIFQINSRYWCNDGKTPGAVNACHLSCSALLQDNIADAVACAKRVVRDPQGIRAWVAWRNRCQNRDVRQYVQGCGA [V148A],44.4 °C,-4.8 °C,1.87,78.2 kcal/mol,

# Same assay, conditions: Homo sapiens; pH 2.78; Thermal; DSC; glycine 0.05 M; reversible: yes; structure 1LZ1; whole UniProt chain shown
Variant,Tm [°C],unfolding enthalpy (calorimetric) [kcal/mol],unfolding enthalpy (van 't Hoff) [kcal/mol]
MKALIVLGLVLLSVTVQGKVFERCELARTLKRLGMDGYRGISLANWMCLAKWESGYNTRATNYNAGDRSTDYGIFQINSRYWCNDGKTPGAVNACHLSCSALLQDNVADAVACAKRVVRDPQGIRAWVAWRNRCQNRDVRQYVQGCGV [I107V],48.4,77.3,82.3

# Same assay, conditions: Homo sapiens; pH 3.1; Thermal; DSC; glycine 0.05 M; reversible: yes; structure 1LZ1; whole UniProt chain shown
Variant,Tm [°C],unfolding enthalpy (calorimetric) [kcal/mol],unfolding enthalpy (van 't Hoff) [kcal/mol]
MKALIVLGLVLLSVTVQGKVFERCELARTLKRLGMDGYRGISLANWMCLAKWESGYNTRATNYNAGDRSTDYGIFQINSRYWCNDGKTPGAVNACHLSCSALLQDNVADAVACAKRVVRDPQGIRAWVAWRNRCQNRDVRQYVQGCGV [I107V],53.8,87.3,88.3

# Same assay, conditions: Homo sapiens; pH 2.5; Thermal; DSC; glycine 0.05 M; reversible: yes; structure 1LZ1; whole UniProt chain shown
Variant,Tm [°C],unfolding enthalpy (calorimetric) [kcal/mol],unfolding enthalpy (van 't Hoff) [kcal/mol]
MKALIVLGLVLLSVTVQGKVFERCELARTLKRLGMDGYRGISLANWMCLAKWESGYNTRATNYNAGDRSTDYGIFQINSRYWCNDGKTPGAVNACHLSCSALLQDNIADAAACAKRVVRDPQGIRAWVAWRNRCQNRDVRQYVQGCGV [V111A],41.2,64.1,71.1
MKALIVLGLVLLSVTVQGKVFERCELARTLKRLGMDGYRGISLANWMCLAKWESGYNTRATNYNAGDRSTDYGIFQINSRYWCNDGKTPGAVNACHLSCSALLQDNIADAVACAKRVVRDPQGIRAWVAWRNRCQNRDVRQYVQGCGA [V148A],40.4,61,67.7

# Same assay, conditions: Homo sapiens; pH 3.02; Thermal; DSC; glycine 0.05 M; reversible: yes; structure 1LZ1; whole UniProt chain shown
Variant,Tm [°C],unfolding enthalpy (calorimetric) [kcal/mol],unfolding enthalpy (van 't Hoff) [kcal/mol]
MKALIVLGLVLLSVTVQGKVFERCELARTLKRLGMDGYRGISLANWMCLAKWESGYNTRATNYNAGDRSTDYGIFQINSRYWCNDGKTPGAVNACHLSCSALLQDNIADAAACAKRVVRDPQGIRAWVAWRNRCQNRDVRQYVQGCGV [V111A],50.1,77.5,83

# Same assay, conditions: Homo sapiens; pH 3.16; Thermal; DSC; glycine 0.05 M; reversible: yes; structure 1LZ1; whole UniProt chain shown
Variant,Tm [°C],unfolding enthalpy (calorimetric) [kcal/mol],unfolding enthalpy (van 't Hoff) [kcal/mol]
MKALIVLGLVLLSVTVQGKVFERCELARTLKRLGMDGYRGISLANWMCLAKWESGYNTRATNYNAGDRSTDYGIFQINSRYWCNDGKTPGAVNACHLSCSALLQDNIADAAACAKRVVRDPQGIRAWVAWRNRCQNRDVRQYVQGCGV [V111A],52.5,81.8,86.4

# Same assay, conditions: Homo sapiens; pH 2.69; Thermal; DSC; glycine 0.05 M; reversible: yes; structure 1LZ1; whole UniProt chain shown
Variant,Tm [°C],unfolding enthalpy (calorimetric) [kcal/mol],unfolding enthalpy (van 't Hoff) [kcal/mol]
MKALIVLGLVLLSVTVQGKVFERCELARTLKRLGMDGYRGISLANWMCLAKWESGYNTRATNYNAGDRSTDYGIFQINSRYWCNDGKTPGAVNACHLSCSALLQDNIADAVACAKRVVRDPQGIRAWVAWRNRCQNRDVRQYVQGCGA [V148A],43.8,69.9,73

# Same assay, conditions: Homo sapiens; pH 2.82; Thermal; DSC; glycine 0.05 M; reversible: yes; structure 1LZ1; whole UniProt chain shown
Variant,Tm [°C],unfolding enthalpy (calorimetric) [kcal/mol],unfolding enthalpy (van 't Hoff) [kcal/mol]
MKALIVLGLVLLSVTVQGKVFERCELARTLKRLGMDGYRGISLANWMCLAKWESGYNTRATNYNAGDRSTDYGIFQINSRYWCNDGKTPGAVNACHLSCSALLQDNIADAVACAKRVVRDPQGIRAWVAWRNRCQNRDVRQYVQGCGA [V148A],47,73,79.2

# Same assay, conditions: Homo sapiens; pH 2.97; Thermal; DSC; glycine 0.05 M; reversible: yes; structure 1LZ1; whole UniProt chain shown
Variant,Tm [°C],unfolding enthalpy (calorimetric) [kcal/mol],unfolding enthalpy (van 't Hoff) [kcal/mol]
MKALIVLGLVLLSVTVQGKVFERCELARTLKRLGMDGYRGISLANWMCLAKWESGYNTRATNYNAGDRSTDYGIFQINSRYWCNDGKTPGAVNACHLSCSALLQDNIADAVACAKRVVRDPQGIRAWVAWRNRCQNRDVRQYVQGCGA [V148A],49.9,80.1,86.1

# Same assay, conditions: Homo sapiens; pH 3.09; Thermal; DSC; glycine 0.05 M; reversible: yes; structure 1LZ1; whole UniProt chain shown
Variant,Tm [°C],unfolding enthalpy (calorimetric) [kcal/mol],unfolding enthalpy (van 't Hoff) [kcal/mol]
MKALIVLGLVLLSVTVQGKVFERCELARTLKRLGMDGYRGISLANWMCLAKWESGYNTRATNYNAGDRSTDYGIFQINSRYWCNDGKTPGAVNACHLSCSALLQDNIADAVACAKRVVRDPQGIRAWVAWRNRCQNRDVRQYVQGCGA [V148A],52.5,84.2,90.2
